In assay [1] the target is HLA-A*03:01. The assay can be described thus: IEDB peptide-MHC binding, purified MHC/competitive/fluorescence; filed as Kd, often an IC50 or EC50 that approximates it; ≥ and ≤ were set here for values at or beyond the usual limits of such assays.
Assay [2] deals with HLA-B*18:01. The assay can be described thus: IEDB peptide-MHC binding, purified MHC/competitive/radioactivity; filed as Kd, often an IC50 or EC50 that approximates it; ≥ and ≤ were set here for values at or beyond the usual limits of such assays.
For assay [3], the target named is HLA-B*40:01. The description is as above.
Assay [4] concerns the target HLA-B*40:02. The assay is described as above.
Assay [5] has as its target HLA-B*44:02. Described as above.
Assay [6] concerns the target HLA-B*44:03. The assay is described as above.
Assay [7] deals with HLA-B*45:01. The description is as above.
The target of assay [8] is HLA-A*01:01. Put plainly: IEDB peptide-MHC binding, purified MHC/direct/fluorescence; filed as Kd, often an IC50 or EC50 that approximates it; ≥ and ≤ were set here for values at or beyond the usual limits of such assays.
Assay [9] has as its target HLA-A*03:01. The description is as above.
Assay [10] addresses HLA-B*07:02. The description is as above.
The target in assay [11] is HLA-B*08:01. The assay is described as above.
The target of assay [12] is HLA-B*18:01. The description is as above.
The target in assay [13] is HLA-B*27:05. Described as above.
The target in assay [14] is HLA-B*40:01. The assay is described as above.
The target of assay [15] is HLA-B*44:02. The assay is described as above.
In assay [16] the target is HLA-B*46:01. Described as above.
Assay [17] concerns the target HLA-B*48:01. The description is as above.
The target in assay [18] is HLA-B*57:01. The description is as above.
Assay [19] concerns the target HLA-B*58:01. The description is as above.
The target in assay [20] is HLA-B*46:01. The assay can be described thus: IEDB peptide-MHC binding, purified MHC/competitive/fluorescence; filed as Kd, often an IC50 or EC50 that approximates it; ≥ and ≤ were set here for values at or beyond the usual limits of such assays. To be noted: source organism: Yellow fever virus.
Assay [21] addresses HLA-A*02:01. The assay can be described thus: IEDB peptide-MHC binding, purified MHC/direct/fluorescence; filed as Kd, often an IC50 or EC50 that approximates it; ≥ and ≤ were set here for values at or beyond the usual limits of such assays. The note with it: source organism: Influenza A virus (A/tiger/Thailand/CU-T6/04(H5N1)).
For assay [22], the target named is HLA-A*11:01. The assay is described as above.
The target of assay [23] is HLA-A*24:03. Described as above. To be noted: source organism: Influenza A virus (A/tiger/Thailand/CU-T6/04(H5N1)).
Assay [24] deals with HLA-A*26:01. Described as above. To be noted: source organism: Influenza A virus(A/swine/Shandong/fZC/2003(H9N2)).
Assay [25] deals with HLA-A*31:01. The description is as above.
Assay [26] addresses HLA-A*69:01. The assay is described as above.
The target in assay [27] is HLA-B*08:02. The description is as above.
Assay [28] concerns the target HLA-B*15:01. The assay is described as above. The note with it: source organism: Influenza A virus (A/tiger/Thailand/CU-T6/04(H5N1)).
Assay [29] addresses HLA-A*02:01. The assay can be described thus: IEDB peptide-MHC binding, purified MHC/competitive/fluorescence; ≥ and ≤ were set here for values at or beyond the usual limits of such assays.
Assay [30] addresses HLA-A*24:02. The description is as above.
The mark [31] stands for this setting: source organism: SARS coronavirus Tor2.
[32] abbreviates: source organism: Mammarenavirus brazilense.
[33] abbreviates: source organism: Mammarenavirus lassaense.
[34] abbreviates: source organism: Lymphocytic choriomeningitis virus (strain Armstrong).
Where [35] appears, read: source organism: Influenza A virus (A/tiger/Thailand/CU-T6/04(H5N1)).
The mark [36] stands for this setting: source organism: Yersinia pestis.
[37] abbreviates: source organism: Yersinia pestis CA88-4125.
Setting [38] is: source organism: Mammarenavirus juninense.
[39] abbreviates: source organism: Vaccinia virus WR.
Setting [40] is: source organism: Mammarenavirus guanaritoense.
The mark [41] stands for this setting: source organism: Sudan ebolavirus.

A value given as a limit tells only on which side of the number the result lay.

On to RMKWMMAMR, for which the Kd in assay [1] (source organism: Influenza A virus (A/chicken/Fujian/25/00(H9N2))) was 0.044 µM.

As for EELFYSYAT, the Kd in assay [2] (setting [31]) was found to be 1.04 µM; in [3] (setting [31]) it was 0.691 µM; in assay [4] (setting [31]), 0.0246 µM; in assay [5] (setting [31]), 0.278 µM; in [6] (setting [31]) it was 0.169 µM; in assay [7] (setting [31]) it was 0.00316 µM.

Turning to IDNQKLSYL, the Kd in assay [2] (setting [32]) was ≥ 77.5 µM; in [3] (setting [32]), ≥ 76.1 µM; in assay [4] (setting [32]) it was 6.52 µM; in assay [5] (setting [32]), ≥ 77.9 µM; in [6] (setting [32]), ≥ 78.1 µM; in assay [7] (setting [32]), 17.7 µM.

For the sequence ILNHKFCNL, the Kd in assay [8] (setting [33]) is ≥ 20 µM; in assay [9] (setting [33]), ≥ 20 µM; in assay [10] (setting [33]), ≥ 20 µM; in [11] (setting [33]), 0.142 µM; in assay [12] (setting [33]), ≥ 20 µM; in [13] (setting [33]) it was ≥ 20 µM. Moreover, the Kd in assay [14] (setting [33]), in [15] (setting [33]), in [16] (setting [33]), in [17] (setting [33]), in [18] (setting [33]) and in [19] (setting [33]) was ≥ 20 µM throughout.

Take HQDNLDTVI: the Kd in assay [17] (source organism: Mycobacterium tuberculosis C) amounted to 9.15 µM.

As for VENPDILRV, the Kd in assay [2] (setting [31]) was 9.07 µM; in assay [3] (setting [31]) it was ≥ 21.8 µM; in assay [4] (setting [31]) it was 1.27 µM; in [5] (setting [31]), 5.14 µM; in assay [6] (setting [31]), 0.25 µM; in assay [7] (setting [31]), 0.474 µM.

TEFACVVAEA: the dissociation constant Kd in assay [2] (setting [31]) was found to be 0.0608 µM; in [3] (setting [31]) it was 1.51 µM; in assay [4] (setting [31]), 0.0146 µM; in assay [5] (setting [31]), 1.44 µM; in assay [6] (setting [31]) it was 0.393 µM; in [7] (setting [31]) it was 0.00898 µM.

As for WEILKFLIT, the Kd in assay [2] (setting [31]) was 2.9 µM; in [3] (setting [31]), 4.36 µM; in assay [4] (setting [31]), 0.00209 µM; in [5] (setting [31]), 9.58 µM; in assay [6] (setting [31]), 1.45 µM; in assay [7] (setting [31]), 4.99 µM.

As for ADQAIANGV, the Kd was ≥ 33.8 µM in assay [2] (setting [34]); ≥ 73.5 µM in [3] (setting [34]); 3.33 µM in [4] (setting [34]); 14.9 µM in assay [5] (setting [34]); ≥ 30.2 µM in [6] (setting [34]); ≥ 20.7 µM in assay [7] (setting [34]).

In assay [20], WFYDNDNPY gave a Kd of 1.17 µM.

Turning to RIHGLGFCY, in assay [1] (source organism: Shigella boydii CDC 3083-94), the Kd was found to be 0.608 µM.

Take PEYFNSVCRL: the Kd was ≥ 70.5 µM in [2] (setting [31]); 2.83 µM in assay [3] (setting [31]); 1.25 µM in assay [4] (setting [31]); ≥ 32.4 µM in [5] (setting [31]); 9.39 µM in assay [6] (setting [31]); ≥ 33.3 µM in [7] (setting [31]).

With TYQWIIRNW, the Kd was ≥ 20 µM in assay [8] (setting [35]); ≥ 20 µM in assay [21]; ≥ 20 µM in assay [9] (setting [35]); ≥ 20 µM in assay [22] (setting [35]); 0.0025 µM in assay [23]; ≥ 20 µM in [24]. Moreover, the Kd in [25] (setting [35]), in [26] (setting [35]), in assay [10] (setting [35]), in assay [11] (setting [35]), in [27] (source organism: Influenza A virus(A/swine/Shandong/fZC/2003(H9N2))) and in assay [28] was ≥ 20 µM each time. In addition, the Kd in assay [13] (setting [35]) was ≥ 20 µM; in assay [14] (setting [35]), ≥ 20 µM; in assay [15] (setting [35]) it was ≥ 20 µM; in assay [16] (setting [35]), ≥ 20 µM; in assay [19] (setting [35]), ≥ 10 µM.

With QLKSRAAVL, the dissociation constant Kd in assay [8] (setting [36]) is ≥ 20 µM; in [9] (setting [36]) it was ≥ 20 µM; in [22] (setting [36]) it was ≥ 20 µM; in assay [25] (setting [36]), ≥ 20 µM; in assay [26] (setting [36]) it was ≥ 20 µM; in assay [11] (setting [37]), 0.034 µM. Moreover, the Kd is 0.948 µM in assay [27] (setting [37]); ≥ 20 µM in assay [12] (setting [36]); ≥ 20 µM in assay [13] (setting [36]); ≥ 20 µM in [14] (setting [36]); ≥ 20 µM in assay [15] (setting [36]); ≥ 20 µM in [16] (setting [36]). Besides, the equilibrium dissociation constant (Kd) in assay [18] (setting [36]) and in assay [19] (setting [36]) was ≥ 20 µM in each case.

RKKLKPRWL: the Kd in [27] (source organism: Dengue virus 2 Thailand/16681/84) is ≥ 20 µM.

For MDYLILKNL, the Kd in assay [2] (setting [38]) is ≥ 53.7 µM; in assay [3] (setting [38]), ≥ 33.9 µM; in assay [4] (setting [38]), 0.0185 µM; in assay [5] (setting [38]) it was 11 µM; in assay [6] (setting [38]), 2.74 µM; in assay [7] (setting [38]), ≥ 33.2 µM.

With EILNTIQFM, the figures for the IC50 in assay [29] (setting [39]) and in assay [30] (setting [39]) were 7.58 µM and ≥ 111 µM, respectively.

In the case of GEKSRCYSL, the Kd is ≥ 77.5 µM in [2] (setting [40]); 0.488 µM in assay [3] (setting [40]); 0.0147 µM in [4] (setting [40]); 2.05 µM in [5] (setting [40]); 11.9 µM in assay [6] (setting [40]); 1.24 µM in assay [7] (setting [40]).

As to RTKSISSR, in [1] (source organism: Influenza A virus (A/swine/Quebec/192/81(H1N1))), the Kd was ≥ 20 µM.

With IASMRRNYF, the Kd is 0.401 µM in assay [11] (source organism: Influenza A virus (A/camel/Mongolia/1982(H1N1))) and 2.23 µM in [27] (source organism: Influenza A virus (A/Taiwan/2/2006(H1N1))).

In turn, FQWAIQDGI returned a Kd in [17] (source organism: Cryptosporidium parvum Iowa II) of 0.082 µM.

Regarding KKKLRPRWL, the Kd in assay [27] (source organism: dengue virus type 4) was ≥ 20 µM.

With LMHNQNALV, the IC50 in [29] (setting [41]) was 1.16 µM; in [30] (setting [41]), ≥ 87 µM.

In assay [1] (source organism: Giardia lamblia ATCC 50803), KLSSEQLSH showed a dissociation constant (Kd) of 0.0594 µM.

For RVSSFIRGKK, the Kd in [1] (source organism: Influenza A virus (A/swine/Italy/2/1979(H1N1))) was found to be 0.0025 µM.

What is called Kd is a measure of binding affinity in units of concentration. Broadly, the IC50 is the midpoint of a concentration-inhibition curve. A high value points to a need for much substance.
